From patent US11110182B2, “Multifunctional RNA nanoparticles and methods for treating cancer and therapeutic resistant cancer” (University of Cincinnati, priority 2016, dated 2021)

Key:
[1] = tested on: ERα target genes TFF-1, c-Myc, cyclin D1; assay: mRNA levels of ERα target genes by real-time PCR in BT474 cells; assay type: cell-based, human; conditions: BT474, 48 h
Method: FIG. 3A) BT474 cells were incubated with 10 μg/mL control and pRNA-HER2apt-siMED1 nanoparticles for 48 h, and MED1 mRNA level was determined by real-time PCR. FIG. 3B) BT474 cells were incubated directly with (as indicated by -) or transfected with indicated pRNAs using lipofectamine 2000. At 48 h post treatment, MED1 protein levels were determined by western blotting. FIG. 3C) BT474 cells were treated with 10 μg/mL pRNA nanoparticles for 48 h and assayed for cell viability by MTT assay. FIG. 3D) Cells were treated as above and seeded for migration, and FIG. 3E) invasion transwell assays. Scale bar: 50 μm. FIG. 3F) After pRNA treatment for 48 h, the mRNA levels of ERα target genes TFF-1, FIG. 3G) c-Myc, and FIG. 3H) cyclin D1 in BT474 cells were determined by real-time PCR.
Cell culture. Human breast cancer luciferase-overexpressing BT474 and MDA-MB-231 cells were maintained in DMEM medium (Hyclone, Thermo Scientific) supplemented with 10% fetal bovine serum (FBS, Sigma) and 1% penicillin/streptomycin (Corning) at 37° C. in a humidified atmosphere with 5% CO2.^53 • Generation of pRNA nanoparticles. The two strands of pRNA were synthesized with the DNA templates, which were amplified with overlapping primers (Sigma) by PCR methods, using a T7 promoter-controlled in vitro RNA transcription system as previously described^33 (Table 1). All the CTP and UTP used for synthesis of the pRNA nanoparticles were 2′-fluoro modified, except the control unmodified pRNA nanoparticles used in the stability assays. […] The hydrodynamic diameter and Tm value of pRNA nanoparticles were determined using dynamic light scattering and TGGE assay, respectively, as previously described.^54 The AFM imaging of the pRNA nanoparticles was performed at the University of Nebraska Medical Center imaging facility as previously reported.^55 Briefly, the pRNA nanoparticles (5 μL) were deposited on APS modified mica ^56 for a total of 2 min of incubation time. […] After washing three times with PBS, the cellular uptake of pRNAs was determined using a BD LSRFortessa™ flow cytometer. • Real-time PCR. […]

MCF-7/TAM cells = assay: MTT assay, MCF-7/TAM cells; assay type: cell-based, human; conditions: 10 μg/mL pRNA and 1 μM tamoxifen, 48 h
Method: FIGS. 10A-10D. Evidence that pRNA-HER2apt-siMED1 nanoparticles silenced MED1 expression and sensitized two other HER2+ breast cancer cells to tamoxifen treatment. FIG. 10A) Two HER2-overexpressing breast cancer cell lines MCF7/TAM and FIG. 10B) MCF7/HER2, were treated with 10 μg/mL pRNA-HER2apt-siMED1 nanoparticles or scramble control for 48 h, and then MED1 protein level was determined using western blots. FIG. 10C) MCF7/TAM and FIG. 10D) MCF7/HER2 cells were treated with 10 μg/mL pRNA nanoparticles and/or 1 μM tamoxifen (TAM) as indicated for 48 h, and then cell growth was determined using an MTT assay.
Since MED1 has recently been reported to play key roles in tamoxifen resistance of human breast cancer, the combinational effects of pRNA-HER2apt-siMED1 nanoparticles with tamoxifen on the growth and metastatic potential of BT474 cells was examined. […] The combinational effect of pRNA-HER2apt-siMED1 nanoparticles with tamoxifen treatment on two other HER2-overexpressing breast cancer cells MCF-7/HER2 and MCF-7/TAM were also confirmed (FIGS. 10C-D).

B1: pRNA-HER2apt-siMED1: 3-WJ pRNA nanoparticle bearing a HER2-targeting RNA aptamer and two different MED1 siRNAs; strands p1 SEQ ID NO: 3, p2 SEQ ID NO: 4 (nucleic acid)
chain 1: GGACAGUGAAAGUGAGUCAAAGGAUCAAUCAUGGCCAAAGAUGUUACUUUGAGAGCCUU
chain 2: GGCUCUCAAAGUAACAUCUAAGGCCAUGUGUAUGUGGGGGGAGGACGAUGCGGUCUGCUGUGCUUGAUAUGCCCCAGACGACUCGCCCCCCACAUACUUUGUUGAUCCAAUGACUCACUUUCACUGUCCUU
modifications: 2'-F modification; third strand may lack entry; pRNA-HER2apt-siMED1, p1; pRNA-HER2apt-siMED1, p2
TFF-1 mRNA expression [1]: significantly down-regulated
c-Myc mRNA expression [1]: significantly down-regulated
cyclin D1 mRNA expression [1]: significantly down-regulated
combinational effect with tamoxifen on cell growth (MCF-7/TAM cells): confirmed
